From patent publication US5679542
“And” between values parts separate entries of the source, which are not always exact repeats. Identical values can stand only once.

Legend:
[1] = target: platelet glycoprotein GPIb-IX complex (Homo sapiens (Human)) (UniProt P07359)
[2] = target: platelet glycoprotein GPIb-IX complex (Homo sapiens (Human)) (UniProt P07359); assay: inhibition of botrocetin-induced 125I-vWF binding to washed platelets (procedure of Ruggeri et al.); competitor vWF

Substance	botrocetin/ristocetin-induced agglutination inhibition assay using PRP [1]	concentration that inhibited the binding of vWF to platelets [2] [nM]
CC, platelet antiadhesive purified from Cerastes cerastes venom	3 µg/mL and 2 µg/mL	–
CHH-B, platelet antiadhesive (GPIb inhibitor) purified from Crotalus horridus horridus venom	–	< 200
purified protein from C. horridus horridus, as prepared in Example 2 (as tested in Example 6)	2 µg/mL and 3 µg/mL	–
